These results are taken from publication PMC3750045, “Human RNase H1 Is Associated with Protein P32 and Is Involved in Mitochondrial Pre-rRNA Processing” (PLoS ONE, 2013).

The chains are these.
B1: N-terminal His-tagged human RNase H1 (recombinant) (enzyme, UniProt O60930 1-286, looked up)
chain: MSWLLFLAHRVALAALPCRRGSRGFGMFYAVRRGRKTGVFLTWNECRAQVDRFPAARFKKFATEDEAWAFVRKSASPEVSEGHENQHGQESEAKASKRLREPLDGDGHESAEPYAKHMKPSVEPAPPVSRDTFSYMGDFVVVYTDGCCSSNGRRRPRAGIGVYWGPGHPLNVGIRLPGRQTNQRAEIHAACKAIEQAKTQNINKLVLYTDSMFTINGITNWVQGWKKNGWKTSAGKEVINKEDFVALERLTQGMDIQWMHVPGHSGFIGNEEADRLAREGAKQSED
notes: human RNase H1, 286 residues (domains printed as aa1-72, aa73-135, aa136-286), in the pET 3C vector; also called His-H1; His-tag RNase H1; source: E. coli BL21 (DE3), lysed in 6 M guanidine, purified (Ni-NTA agarose)
B2: Duplex B, non-cleavable Apo B 2'-fluoro RNA/DNA heteroduplex (XNA)
RNA: GGAUGGUAGCACAAGUGACA
DNA: TGTCCTTGTGCTACCATCC
modifications: strand 1 uniformly 2'-fluoro RNA; strand 2 DNA
B3: GST-P32 fusion protein (natural protein, human, UniProt Q07021 74-282, looked up)
chain: LHTDGDKAFVDFLSDEIKEERKIQKHKTLPKMSGGWELELNGTEAKLVRKVAGEKITVTFNINNSIPPTFDGEEEPSQGQKVEEQEPELTSTPNFVVEVIKNDDGKKALVLDCHYPEDEVGQEDEAESDIFSIREVSFQSTGESEWKDTNYTLNTDSLDWALYDHLMDFLADRGVDNTFADELVELSTALEHQEYITFLEDLKSFVKSQ

In the data set “GST-P32 fusion protein” the target is B3. Briefly: pull-down; fixed amount of GST-P32 on GST beads, increasing amounts of RNase H1 (0.025–2.0 µg/400 µl), room temperature 15–20 minutes; glutathione elution; bound RNase H1 and P32 quantified by Western blot against known amounts. As to conditions: both partners purified. (A western blot detects proteins with antibodies after separation by electrophoresis.)

The next data set addresses T1, His-RNase H1 (Homo sapiens, UniProt O60930 1-286).
T1 sequence: B1 chain
Briefly: EMSA; 2 mM Mg2+, 4 C; EMSA: 20 mM Tris pH 7.0, 20 mM NaCl, 2 mM MgCl2, 5% glycerol, 30 min at 4 C; cleavage buffer (described for IP activity assays; competition conditions by reference): 20 mM Tris pH 7.5, 50 mM NaCl, 2 mM MgCl2, 5 mM 2-mercaptoethanol, 37 C. The note with it: protein: recombinant; tags: N-terminal His; label: 32P (5' end). (In general: A gel shift assay detects complexes by their altered migration in electrophoresis.)

Data set [1] deals with B1. Put plainly: cell-based or functional assay.

As for B1, in the data set with GST-P32 fusion protein, the “stoichiometry N” value is ~1.43 molecules of RNase H1 to 1 molecule of P32.

Take B2: in the data set with His-RNase H1, the binding result was “binds”.

Turning to B3, in data set [1], the “increase in Km of RNase H1 for the RNA/DNA duplex with GST-P32 at H1:P32 ratios of 1:1 and 1:5, against RNase H1 with GST control” value was roughly 5 fold; the “increase in kcat of RNase H1 cleavage of the RNA/DNA duplex with GST-P32, against control RNase H1” value was roughly 2 fold.
